In patent US20260295010 (published 2026):
Where two headings read alike, the source gives them in different places.

T1: IL-12RB2-hFc (human, UniProt Q99665)
T1 chain: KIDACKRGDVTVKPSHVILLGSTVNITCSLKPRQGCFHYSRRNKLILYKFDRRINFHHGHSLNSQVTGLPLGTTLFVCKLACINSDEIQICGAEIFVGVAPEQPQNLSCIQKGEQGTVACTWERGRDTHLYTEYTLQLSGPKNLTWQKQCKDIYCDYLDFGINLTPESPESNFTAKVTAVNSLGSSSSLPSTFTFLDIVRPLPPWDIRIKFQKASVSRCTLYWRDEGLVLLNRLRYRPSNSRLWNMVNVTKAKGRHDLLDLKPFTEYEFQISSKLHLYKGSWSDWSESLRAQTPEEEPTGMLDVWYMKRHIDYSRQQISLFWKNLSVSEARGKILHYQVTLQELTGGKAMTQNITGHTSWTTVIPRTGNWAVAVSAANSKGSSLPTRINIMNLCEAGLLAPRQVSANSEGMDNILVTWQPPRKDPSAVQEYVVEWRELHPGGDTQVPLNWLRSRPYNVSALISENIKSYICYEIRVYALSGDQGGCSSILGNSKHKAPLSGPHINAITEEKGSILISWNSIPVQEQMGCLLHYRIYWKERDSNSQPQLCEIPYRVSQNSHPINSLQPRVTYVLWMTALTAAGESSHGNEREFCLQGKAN


Legend:
Experiment in all cases: SPR, 25C
IL-12RB2-hFc [1] = molecular target: T1, IL-12RB2-hFc
IL-12RB1-hFc = IL-12RB1-hFc (human, UniProt P42701)
IL-12RB2-hFc [2] = molecular target: T1, IL-12RB2-hFc

Binder | Kd (IL-12RB2-hFc [1]) [nM] | Kd (IL-12RB1-hFc) [nM] | Kd (IL-12RB2-hFc [2]) [nM]
IL-12p70 W16A D94K K196E K259Y (protein) chain 1: MIWELKKDVYVVELDAYPDAPGEMVVLTCDTPEEDGITWTLDQSSEVLGSGKTLTIQVKEFGDAGQYTCHKGGEVLSHSLLLLHKKEDGIWSTKILKDQKEPKNKTFLRCEAKNYSGRFTCWWLTTISTDLTFSVKSSRGSSDPQGVTCGAATLSAERVRGDNKEYEYSVECQEDSACPAAEESLPIEVMVDAVHELKYENYTSSFFIRDIIKPDPPKNLQLKPLKNSRQVEVSWEYPDTWSTPHSYFSLTFSVQVQGYSKREKKDRVFTDKTSATVICRKNASISVRAQDRYYSSSWSEWASVPCSGGGSHHHHHH chain 2: MRNLPVATPDPGMFPSLHHSQNLLRAVSNMLQKARQTLEFYPCTSEEIDHEDITKDKTSTVEACLPLELTKNESCLNSRETSFITNGSSLASRKTSFMMALCLSSIYEDLKMYQVEFKTMNAKLLMDPKRQIFLDQNMLAVIDELMQALNFNSETVPQKSSLEEPDFYKTKIKLCILLHAFRIRAVTIDRVMSYLNAS | 1.9 |  | 
IL-12p70 D94K K196E (protein) chain 1: MIWELKKDVYVVELDWYPDAPGEMVVLTCDTPEEDGITWTLDQSSEVLGSGKTLTIQVKEFGDAGQYTCHKGGEVLSHSLLLLHKKEDGIWSTKILKDQKEPKNKTFLRCEAKNYSGRFTCWWLTTISTDLTFSVKSSRGSSDPQGVTCGAATLSAERVRGDNKEYEYSVECQEDSACPAAEESLPIEVMVDAVHELKYENYTSSFFIRDIIKPDPPKNLQLKPLKNSRQVEVSWEYPDTWSTPHSYFSLTFSVQVQGKSKREKKDRVFTDKTSATVICRKNASISVRAQDRYYSSSWSEWASVPCSGGGSHHHHHH chain 2: MRNLPVATPDPGMFPSLHHSQNLLRAVSNMLQKARQTLEFYPCTSEEIDHEDITKDKTSTVEACLPLELTKNESCLNSRETSFITNGSSLASRKTSFMMALCLSSIYEDLKMYQVEFKTMNAKLLMDPKRQIFLDQNMLAVIDELMQALNFNSETVPQKSSLEEPDFYKTKIKLCILLHAFRIRAVTIDRVMSYLNAS | 2.3 |  | 
IL-12p70 W16A D94K K196E L197A (protein) chain 1: MIWELKKDVYVVELDAYPDAPGEMVVLTCDTPEEDGITWTLDQSSEVLGSGKTLTIQVKEFGDAGQYTCHKGGEVLSHSLLLLHKKEDGIWSTKILKDQKEPKNKTFLRCEAKNYSGRFTCWWLTTISTDLTFSVKSSRGSSDPQGVTCGAATLSAERVRGDNKEYEYSVECQEDSACPAAEESLPIEVMVDAVHEAKYENYTSSFFIRDIIKPDPPKNLQLKPLKNSRQVEVSWEYPDTWSTPHSYFSLTFSVQVQGKSKREKKDRVFTDKTSATVICRKNASISVRAQDRYYSSSWSEWASVPCSGGGSHHHHHH chain 2: MRNLPVATPDPGMFPSLHHSQNLLRAVSNMLQKARQTLEFYPCTSEEIDHEDITKDKTSTVEACLPLELTKNESCLNSRETSFITNGSSLASRKTSFMMALCLSSIYEDLKMYQVEFKTMNAKLLMDPKRQIFLDQNMLAVIDELMQALNFNSETVPQKSSLEEPDFYKTKIKLCILLHAFRIRAVTIDRVMSYLNAS | 3 |  | 
IL-12p70 W16A D94K (protein) chain 1: MIWELKKDVYVVELDAYPDAPGEMVVLTCDTPEEDGITWTLDQSSEVLGSGKTLTIQVKEFGDAGQYTCHKGGEVLSHSLLLLHKKEDGIWSTKILKDQKEPKNKTFLRCEAKNYSGRFTCWWLTTISTDLTFSVKSSRGSSDPQGVTCGAATLSAERVRGDNKEYEYSVECQEDSACPAAEESLPIEVMVDAVHKLKYENYTSSFFIRDIIKPDPPKNLQLKPLKNSRQVEVSWEYPDTWSTPHSYFSLTFSVQVQGKSKREKKDRVFTDKTSATVICRKNASISVRAQDRYYSSSWSEWASVPCSGGGSHHHHHH chain 2: MRNLPVATPDPGMFPSLHHSQNLLRAVSNMLQKARQTLEFYPCTSEEIDHEDITKDKTSTVEACLPLELTKNESCLNSRETSFITNGSSLASRKTSFMMALCLSSIYEDLKMYQVEFKTMNAKLLMDPKRQIFLDQNMLAVIDELMQALNFNSETVPQKSSLEEPDFYKTKIKLCILLHAFRIRAVTIDRVMSYLNAS | 2.4 |  | 
IL-12p70 W16A D94K K196E (protein) chain 1: MIWELKKDVYVVELDAYPDAPGEMVVLTCDTPEEDGITWTLDQSSEVLGSGKTLTIQVKEFGDAGQYTCHKGGEVLSHSLLLLHKKEDGIWSTKILKDQKEPKNKTFLRCEAKNYSGRFTCWWLTTISTDLTFSVKSSRGSSDPQGVTCGAATLSAERVRGDNKEYEYSVECQEDSACPAAEESLPIEVMVDAVHELKYENYTSSFFIRDIIKPDPPKNLQLKPLKNSRQVEVSWEYPDTWSTPHSYFSLTFSVQVQGKSKREKKDRVFTDKTSATVICRKNASISVRAQDRYYSSSWSEWASVPCSGGGSHHHHHH chain 2: MRNLPVATPDPGMFPSLHHSQNLLRAVSNMLQKARQTLEFYPCTSEEIDHEDITKDKTSTVEACLPLELTKNESCLNSRETSFITNGSSLASRKTSFMMALCLSSIYEDLKMYQVEFKTMNAKLLMDPKRQIFLDQNMLAVIDELMQALNFNSETVPQKSSLEEPDFYKTKIKLCILLHAFRIRAVTIDRVMSYLNAS | 2.3 |  | 
IL-12p70 K103A (protein) chain 1: MIWELKKDVYVVELDWYPDAPGEMVVLTCDTPEEDGITWTLDQSSEVLGSGKTLTIQVKEFGDAGQYTCHKGGEVLSHSLLLLHKKEDGIWSTDILKDQKEPANKTFLRCEAKNYSGRFTCWWLTTISTDLTFSVKSSRGSSDPQGVTCGAATLSAERVRGDNKEYEYSVECQEDSACPAAEESLPIEVMVDAVHKLKYENYTSSFFIRDIIKPDPPKNLQLKPLKNSRQVEVSWEYPDTWSTPHSYFSLTFSVQVQGKSKREKKDRVFTDKTSATVICRKNASISVRAQDRYYSSSWSEWASVPCSGGGSHHHHHH chain 2: MRNLPVATPDPGMFPSLHHSQNLLRAVSNMLQKARQTLEFYPCTSEEIDHEDITKDKTSTVEACLPLELTKNESCLNSRETSFITNGSSLASRKTSFMMALCLSSIYEDLKMYQVEFKTMNAKLLMDPKRQIFLDQNMLAVIDELMQALNFNSETVPQKSSLEEPDFYKTKIKLCILLHAFRIRAVTIDRVMSYLNAS |  | 0.04 | 0.33
IL-12p70 D88A (protein) chain 1: MIWELKKDVYVVELDWYPDAPGEMVVLTCDTPEEDGITWTLDQSSEVLGSGKTLTIQVKEFGDAGQYTCHKGGEVLSHSLLLLHKKEAGIWSTDILKDQKEPKNKTFLRCEAKNYSGRFTCWWLTTISTDLTFSVKSSRGSSDPQGVTCGAATLSAERVRGDNKEYEYSVECQEDSACPAAEESLPIEVMVDAVHKLKYENYTSSFFIRDIIKPDPPKNLQLKPLKNSRQVEVSWEYPDTWSTPHSYFSLTFSVQVQGKSKREKKDRVFTDKTSATVICRKNASISVRAQDRYYSSSWSEWASVPCSGGGSHHHHHH chain 2: MRNLPVATPDPGMFPSLHHSQNLLRAVSNMLQKARQTLEFYPCTSEEIDHEDITKDKTSTVEACLPLELTKNESCLNSRETSFITNGSSLASRKTSFMMALCLSSIYEDLKMYQVEFKTMNAKLLMDPKRQIFLDQNMLAVIDELMQALNFNSETVPQKSSLEEPDFYKTKIKLCILLHAFRIRAVTIDRVMSYLNAS |  | 0.03 | 0.38
IL-12p70 K103E (protein) chain 1: MIWELKKDVYVVELDWYPDAPGEMVVLTCDTPEEDGITWTLDQSSEVLGSGKTLTIQVKEFGDAGQYTCHKGGEVLSHSLLLLHKKEDGIWSTDILKDQKEPENKTFLRCEAKNYSGRFTCWWLTTISTDLTFSVKSSRGSSDPQGVTCGAATLSAERVRGDNKEYEYSVECQEDSACPAAEESLPIEVMVDAVHKLKYENYTSSFFIRDIIKPDPPKNLQLKPLKNSRQVEVSWEYPDTWSTPHSYFSLTFSVQVQGKSKREKKDRVFTDKTSATVICRKNASISVRAQDRYYSSSWSEWASVPCSGGGSHHHHHH chain 2: MRNLPVATPDPGMFPSLHHSQNLLRAVSNMLQKARQTLEFYPCTSEEIDHEDITKDKTSTVEACLPLELTKNESCLNSRETSFITNGSSLASRKTSFMMALCLSSIYEDLKMYQVEFKTMNAKLLMDPKRQIFLDQNMLAVIDELMQALNFNSETVPQKSSLEEPDFYKTKIKLCILLHAFRIRAVTIDRVMSYLNAS |  | 0.11 | 0.34
IL-12p70 T203A (protein) chain 1: MIWELKKDVYVVELDWYPDAPGEMVVLTCDTPEEDGITWTLDQSSEVLGSGKTLTIQVKEFGDAGQYTCHKGGEVLSHSLLLLHKKEDGIWSTDILKDQKEPKNKTFLRCEAKNYSGRFTCWWLTTISTDLTFSVKSSRGSSDPQGVTCGAATLSAERVRGDNKEYEYSVECQEDSACPAAEESLPIEVMVDAVHKLKYENYASSFFIRDIIKPDPPKNLQLKPLKNSRQVEVSWEYPDTWSTPHSYFSLTFSVQVQGKSKREKKDRVFTDKTSATVICRKNASISVRAQDRYYSSSWSEWASVPCSGGGSHHHHHH chain 2: MRNLPVATPDPGMFPSLHHSQNLLRAVSNMLQKARQTLEFYPCTSEEIDHEDITKDKTSTVEACLPLELTKNESCLNSRETSFITNGSSLASRKTSFMMALCLSSIYEDLKMYQVEFKTMNAKLLMDPKRQIFLDQNMLAVIDELMQALNFNSETVPQKSSLEEPDFYKTKIKLCILLHAFRIRAVTIDRVMSYLNAS |  | 0.04 | 0.5
IL-12p70 W16A K196E (protein) chain 1: MIWELKKDVYVVELDAYPDAPGEMVVLTCDTPEEDGITWTLDQSSEVLGSGKTLTIQVKEFGDAGQYTCHKGGEVLSHSLLLLHKKEDGIWSTDILKDQKEPKNKTFLRCEAKNYSGRFTCWWLTTISTDLTFSVKSSRGSSDPQGVTCGAATLSAERVRGDNKEYEYSVECQEDSACPAAEESLPIEVMVDAVHELKYENYTSSFFIRDIIKPDPPKNLQLKPLKNSRQVEVSWEYPDTWSTPHSYFSLTFSVQVQGKSKREKKDRVFTDKTSATVICRKNASISVRAQDRYYSSSWSEWASVPCSGGGSHHHHHH chain 2: MRNLPVATPDPGMFPSLHHSQNLLRAVSNMLQKARQTLEFYPCTSEEIDHEDITKDKTSTVEACLPLELTKNESCLNSRETSFITNGSSLASRKTSFMMALCLSSIYEDLKMYQVEFKTMNAKLLMDPKRQIFLDQNMLAVIDELMQALNFNSETVPQKSSLEEPDFYKTKIKLCILLHAFRIRAVTIDRVMSYLNAS | 2.8 |  | 
